From publication PMC2666074 (Biochemistry, 2008)

B1: SIP(189–203) (peptide)
chain: SEGLMNVLKKIYEDG
B2: SIP(189–219) (peptide, UniProt Q9CXW3 189-219, looked up)
chain: SEGLMNVLKKIYEDGDDDMKRTINKAWVESR
B3: SIP(178–229), SGS domain of SIP (domain or fragment)
chain: EKPSYDTEADPSEGLMNVLKKIYEDGDDDMKRTINKAWVESREKQAREDTEF

Key:
S100A6 (rabbit, intact) [1] = biological target: T1, S100A6 (rabbit, intact) (rabbit, UniProt P30801 1-90); test: ITC
cross-linking = biological target: the molecule itself; test: cross-linking
S100A6 (rabbit, intact) [2] = biological target: T1, S100A6 (rabbit, intact); test: NMR titration
S100A6 (rabbit, intact) [3] = biological target: T1, S100A6 (rabbit, intact); test: native MS

| Binder | Kd (S100A6 (rabbit, intact) [1]) [µM] | binding result (cross-linking) | stoichiometry N (S100A6 (rabbit, intact) [2]) [SIP per S100A6 dimer] | stoichiometry N (S100A6 (rabbit, intact) [3]) | binding result (S100A6 (rabbit, intact) [1]) |
| --- | --- | --- | --- | --- | --- |
| B1 | 20 |  |  |  |  |
| B2 | 5 | binds | 2 | 2 SIP(189–219) per S100A6 dimer |  |
| B3 |  |  |  |  | binds |
